B1: WT mSIRPα (32-373), secreted by SYN2996 (receptor)
chain: VDYKDDDDKQLGGGKELKVTQPEKSVSVAAGDSTVLNCTLTSLLPVGPIKWYRGVGQSRLLIYSFTGEHFPRVTNVSDATKRNNMDFSIRISNVTPEDAGTYYCVKFQKGPSEPDTEIQSGGGTEVYVLAKPSPPEVSGPADRGIPDQKVNFTCKSHGFSPRNITLKWFKDGQELHHLETTVNPSGKNVSYNISSTVRVVLNSMDVHSKVICEVAHITLDRSPLRGIANLSNFIRVSPTVKVTQQSPTSMNQVNLTCRAERFYPEDLQLIWLENGNVSRNDTPKNLTKNTDGTYNYTSLFLVNSSAHREDVVFTCQVKHDQQPAITRNHTVLGLAHSSDQGSMQTFPGNNATHNWNKGELNSKLEGKPIPNPLLGLDSTDPNSSSVDHHHHHH
B2: mCV1SIRPα, secreted by SYN3159 (receptor)
chain: VDYKDDDDKQLGGSEEELQIIQPDKSVLVAAGETATLRCTITSLFPVGPIQWFRGAGPGRVLIYNQRQGPFPRVTTVSDTTKRNNMDFSIRIGNITPADAGTYYCIKFRKGSPDDVEFKSGAGTELSVRAKPSGSGELGGSGKPIPNPLLGLDSTGSGHHHHHH
notes: also called PhoA-FLAG-CV1sirpα-V5-HIS
B3: anti-mCD47 scFv, secreted by SYN3161 (scFv)
scFv: QVKLLQSGAALVKPGASVKMSCQASGYSFTDYWVTWVKQSHGQSLEWIGEIYPSNTVTNFNDNFKGKATLTVDKSTSTAYMELSRLTSEDSAIYYCTRIGNSGYRVGWFIYWGQGTLVTVLSGGGGSGGGGSGGGGSDTVLTQSPALAVSPGERVTISCKASESVSSHMHWYQQKPGQQPKLLIYKASNLASGVPARFSGSGSGTDFTLTIDPVEADDTATYFCQQGWNGPFTFGAGTRLELKRADAAGSGELGGSGKPIPNPLLGLDSTGSGHHHHHH
B4: CD47 on mouse CT26 cells (receptor, UniProt Q61735 19-303, looked up)
chain: QLLFSNVNSIEFTSCNETVVIPCIVRNVEAQSTEEMFVKWKLNKSYIFIYDGNKNSTTTDQNFTSAKISVSDLINGIASLKMDKRDAMVGNYTCEVTELSREGKTVIELKNRTVSWFSPNEKILIVIFPILAILLFWGKFGILTLKYKSSHTNKRIILLLVAGLVLTVIVVVGAILLIPGEKPVKNASGLGLIVISTGILILLQYNVFMTAFGMTSFTIAILITQVLGYVLALVGLCLCIMACEPVHGPLLISGLGIIALAELLGLVYMKFVASNQRTIQPPRNR
notes: whole, on cells; also called CD47 on CT26 cells; murine CD47 on CT26 cells
B5: mCD40L1 (47-260), secreted by SYN3366 (ligand)
chain: VDYKDDDDKQLGGGHRRLDKVEEEVNLHEDFVFIKKLKRCNKGEGSLSLLNCEEMRRQFEDLVKDITLNKEEKKENSFEMQRGDEDPQIAAHVVSEANSNAASVLQWAKKGYYTMKSNLVMLENGKQLTVKREGLYYVYTQVTFCSNREPSSQRPFIVGLWLKPSSGSERILLKAANTHSSSQLCEQQSVHLGGVFELQAGASVFVNVTEASQVIHRVGFSSFGLLKLKGELNSKLEGKPIPNPLLGLDSTDPNSSSVDHHHHHH
B6: mFD6x2SIRPα, secreted by SYN3160 (receptor)
chain: VDYKDDDDKQLGGSEEEVQIIQPDKSVSVAAGESAILHCTITSLFPVGPIQWFRGAGPARVLIYNQRQGPFPRVTTISETTRRENMDFSISISNITPADAGTYYCIKFRKGSPDTEFKSGAGTELSVRAKPSGGGGSGGGGSEEEVQIIQPDKSVSVAAGESAILHCTITSLFPVGPIQWFRGAGPARVLIYNQRQGPFPRVTTISETTRRENMDFSISISNITPADAGTYYCIKFRKGSPDTEFKSGAGTELSVRAKPSGSGELGGSGKPIPNPLLGLDSTGSGHHHHHH
notes: also called mFD62xSIRPα; FD1x2SIRPα
B7: mCD40L2 (112-260), secreted by SYN3367 (ligand)
chain: VDYKDDDDKQLGGGMQRGDEDPQIAAHVVSEANSNAASVLQWAKKGYYTMKSNLVMLENGKQLTVKREGLYYVYTQVTFCSNREPSSQRPFIVGLWLKPSSGSERILLKAANTHSSSQLCEQQSVHLGGVFELQAGASVFVNVTEASQVIHRVGFSSFGLLKLKGELNSKLEGKPIPNPLLGLDSTDPNSSSVDHHHHHH

The target of experiment [1] is IgG (control coating). Description: ELISA, IgG-coated plate, bacterial supernatant.
For experiment [2], the target named is B4. Description: flow cytometry on CT26 cells, 10x concentrated supernatant.
The target in experiment [3] is T1, recombinant SIRPα (Rndsystems) (mouse, UniProt P97797 32-373, limits assumed).
T1 construct: also called recombinant SIRPalpha; recombinant mSIRPα
T1 sequence (looked up): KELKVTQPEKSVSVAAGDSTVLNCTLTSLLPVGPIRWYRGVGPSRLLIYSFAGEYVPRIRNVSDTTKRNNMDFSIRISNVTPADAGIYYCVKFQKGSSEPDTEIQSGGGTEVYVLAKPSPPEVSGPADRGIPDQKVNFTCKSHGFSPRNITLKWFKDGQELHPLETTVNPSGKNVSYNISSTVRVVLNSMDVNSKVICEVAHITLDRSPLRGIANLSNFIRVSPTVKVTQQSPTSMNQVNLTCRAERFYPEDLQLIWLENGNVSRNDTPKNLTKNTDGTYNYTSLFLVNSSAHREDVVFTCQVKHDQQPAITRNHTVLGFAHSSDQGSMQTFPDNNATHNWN
Description: competition flow cytometry on CT26 cells.
Description: Cells were spun down, supernatant was aspirated, pellet was resuspended in 1 ml D-PBS, transferred into chilled assay tubes (1×10\hat{ }6 cells), and washed 3 times in D-PBS. Cells were resuspended in D-PBS with 0.5% BSA, to which the 10 jut of the supernatant (10× concentrated) were added and incubated for 1 hour at 4 C. Supernatant from SYN1557 was used as a baseline negative control. Cells were then resuspended in 0.5 ml PBS, diluted to proper concentration and analyzed on a flow cytometer.

For experiment [4], the target named is IgG (control coating). Description: ELISA, IgG-coated plate, clarified bacterial supernatant.

In turn, B1 came in with an ELISA signal (unit not given) in experiment [1] of 0.056.

Turning to B2, in experiment [2], the binding result was “binds”.

As for B3, the ELISA signal (unit not given) in experiment [1] was 0.067.

As for B4, the binding result in experiment [3] is given as “binds”.

Consider B5, for which the ELISA signal (unit not given) in experiment [4] is 0.052.

Take B6: the binding result in experiment [2] was “binds”.

Take B7: the ELISA signal (unit not given) in experiment [4] was 0.052.

The values above are taken from patent publication US20230332164A1 (SYNLOGIC OPERATING, published 2023).
